Results: patent publication US20090311686A1 (GIVAUDAN, published 2009)
No end group written: not given here.

What was measured:
Assay in all cases: cell-based or functional assay
[1] = biological target: T1, human calcium-sensing receptor (hCaSR), full length (human, UniProt Q8TE23 20-839)
T1 sequence: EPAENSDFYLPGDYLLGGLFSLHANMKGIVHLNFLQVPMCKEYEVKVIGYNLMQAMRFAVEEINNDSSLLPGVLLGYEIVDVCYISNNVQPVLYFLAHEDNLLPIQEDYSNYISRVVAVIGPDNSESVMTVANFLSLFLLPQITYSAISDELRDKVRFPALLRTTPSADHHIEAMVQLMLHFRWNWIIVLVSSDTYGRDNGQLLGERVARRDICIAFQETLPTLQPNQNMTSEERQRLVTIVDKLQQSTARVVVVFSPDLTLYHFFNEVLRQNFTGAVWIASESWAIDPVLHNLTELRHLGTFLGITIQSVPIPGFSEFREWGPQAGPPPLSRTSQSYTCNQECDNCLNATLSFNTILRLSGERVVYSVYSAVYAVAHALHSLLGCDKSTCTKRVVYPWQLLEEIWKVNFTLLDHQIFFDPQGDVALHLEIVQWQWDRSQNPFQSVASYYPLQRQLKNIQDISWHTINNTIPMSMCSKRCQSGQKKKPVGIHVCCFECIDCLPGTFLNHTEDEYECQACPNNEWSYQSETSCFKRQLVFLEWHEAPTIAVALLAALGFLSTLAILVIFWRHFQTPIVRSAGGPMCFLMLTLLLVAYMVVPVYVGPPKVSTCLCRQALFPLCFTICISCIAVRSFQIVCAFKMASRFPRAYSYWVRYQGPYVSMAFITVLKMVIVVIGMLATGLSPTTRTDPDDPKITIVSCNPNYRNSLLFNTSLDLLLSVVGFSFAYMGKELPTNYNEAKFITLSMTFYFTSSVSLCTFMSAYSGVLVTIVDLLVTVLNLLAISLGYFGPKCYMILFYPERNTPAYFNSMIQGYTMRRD

[2] = biological target: human T1R2/T1R3 sweet receptor heterodimer (wildtype) (human, UniProt Q8TE23 20-839; Q7RTX0 21-852)
human T1R2/T1R3 sweet receptor heterodimer (wildtype), sequence (Q7RTX0 21-852 C757R limits assumed, one chain of several): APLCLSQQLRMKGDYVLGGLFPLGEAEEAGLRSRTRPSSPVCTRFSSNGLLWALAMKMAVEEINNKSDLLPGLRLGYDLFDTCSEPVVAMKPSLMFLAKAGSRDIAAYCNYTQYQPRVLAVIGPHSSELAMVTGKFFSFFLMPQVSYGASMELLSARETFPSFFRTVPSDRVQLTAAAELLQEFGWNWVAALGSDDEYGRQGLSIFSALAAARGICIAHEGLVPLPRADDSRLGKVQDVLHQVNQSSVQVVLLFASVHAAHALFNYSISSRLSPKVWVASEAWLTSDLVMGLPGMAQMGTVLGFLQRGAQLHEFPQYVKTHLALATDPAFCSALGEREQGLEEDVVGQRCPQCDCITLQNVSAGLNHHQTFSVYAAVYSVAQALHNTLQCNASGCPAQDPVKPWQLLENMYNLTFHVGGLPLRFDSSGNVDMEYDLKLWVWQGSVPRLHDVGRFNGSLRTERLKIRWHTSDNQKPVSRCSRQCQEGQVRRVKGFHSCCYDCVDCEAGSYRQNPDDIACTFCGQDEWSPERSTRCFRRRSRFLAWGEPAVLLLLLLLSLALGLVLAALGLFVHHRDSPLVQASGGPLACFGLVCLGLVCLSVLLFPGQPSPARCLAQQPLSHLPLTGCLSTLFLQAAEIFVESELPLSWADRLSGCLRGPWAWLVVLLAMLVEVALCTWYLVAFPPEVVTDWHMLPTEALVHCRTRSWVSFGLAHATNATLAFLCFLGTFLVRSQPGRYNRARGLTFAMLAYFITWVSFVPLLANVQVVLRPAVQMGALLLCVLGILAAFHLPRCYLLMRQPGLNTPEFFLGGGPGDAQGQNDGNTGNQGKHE

[3] = biological target: T2, CSR:T1R2/CSR:T1R3 chimeric heterodimer (human)
T2 chain 1: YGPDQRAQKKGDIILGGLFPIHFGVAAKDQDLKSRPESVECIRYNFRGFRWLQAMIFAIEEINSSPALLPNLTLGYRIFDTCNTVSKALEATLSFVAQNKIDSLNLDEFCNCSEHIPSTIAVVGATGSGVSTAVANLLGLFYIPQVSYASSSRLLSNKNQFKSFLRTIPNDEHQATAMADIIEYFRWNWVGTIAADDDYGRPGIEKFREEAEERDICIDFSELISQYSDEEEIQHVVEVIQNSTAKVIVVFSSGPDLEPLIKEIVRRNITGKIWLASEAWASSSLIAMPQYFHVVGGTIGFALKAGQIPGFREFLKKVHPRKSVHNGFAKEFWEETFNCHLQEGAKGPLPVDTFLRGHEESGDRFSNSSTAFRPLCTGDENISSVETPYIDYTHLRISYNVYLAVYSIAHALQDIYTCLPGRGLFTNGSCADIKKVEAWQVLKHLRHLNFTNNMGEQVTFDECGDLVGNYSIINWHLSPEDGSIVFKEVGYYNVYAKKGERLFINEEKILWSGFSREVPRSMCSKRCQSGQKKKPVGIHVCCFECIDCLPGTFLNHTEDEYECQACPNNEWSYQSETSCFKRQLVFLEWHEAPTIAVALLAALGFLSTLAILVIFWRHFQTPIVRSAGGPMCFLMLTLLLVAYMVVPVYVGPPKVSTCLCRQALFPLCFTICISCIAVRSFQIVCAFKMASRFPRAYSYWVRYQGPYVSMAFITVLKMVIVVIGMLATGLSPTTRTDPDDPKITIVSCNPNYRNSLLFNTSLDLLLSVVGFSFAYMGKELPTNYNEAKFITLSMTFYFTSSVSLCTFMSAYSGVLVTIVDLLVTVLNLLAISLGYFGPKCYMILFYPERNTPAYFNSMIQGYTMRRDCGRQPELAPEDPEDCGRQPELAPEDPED
T2 chain 2: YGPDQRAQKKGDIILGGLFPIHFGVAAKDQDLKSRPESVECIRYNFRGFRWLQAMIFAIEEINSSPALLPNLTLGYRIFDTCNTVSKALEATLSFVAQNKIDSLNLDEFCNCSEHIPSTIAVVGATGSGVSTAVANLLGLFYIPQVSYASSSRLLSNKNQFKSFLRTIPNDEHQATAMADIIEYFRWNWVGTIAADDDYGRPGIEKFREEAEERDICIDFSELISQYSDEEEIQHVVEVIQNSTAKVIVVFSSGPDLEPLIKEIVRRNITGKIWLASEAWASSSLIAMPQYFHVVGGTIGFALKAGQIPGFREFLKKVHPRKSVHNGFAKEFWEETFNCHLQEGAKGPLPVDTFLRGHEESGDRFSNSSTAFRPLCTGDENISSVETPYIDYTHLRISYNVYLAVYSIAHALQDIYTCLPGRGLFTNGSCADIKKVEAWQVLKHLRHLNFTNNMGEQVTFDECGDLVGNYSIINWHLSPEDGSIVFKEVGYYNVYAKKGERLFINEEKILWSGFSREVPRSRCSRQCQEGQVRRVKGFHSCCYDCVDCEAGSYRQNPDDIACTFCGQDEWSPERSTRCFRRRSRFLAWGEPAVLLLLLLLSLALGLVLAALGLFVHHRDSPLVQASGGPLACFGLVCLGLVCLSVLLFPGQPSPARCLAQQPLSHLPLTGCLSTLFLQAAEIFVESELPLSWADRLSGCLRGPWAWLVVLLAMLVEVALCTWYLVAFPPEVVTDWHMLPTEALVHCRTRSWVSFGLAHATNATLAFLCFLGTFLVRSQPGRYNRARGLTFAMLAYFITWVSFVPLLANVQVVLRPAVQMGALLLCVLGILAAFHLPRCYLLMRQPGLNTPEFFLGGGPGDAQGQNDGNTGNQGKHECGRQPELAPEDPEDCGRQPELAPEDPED

net increase in fluorescence over baseline (Fluo-4 calcium assay, AVG of six replicates), aspartame 0.85 mM [1]: 41 RFU | net increase in fluorescence over baseline (Fluo-4 calcium assay, AVG of six replicates), aspartame 0.85 mM [2]: 531 RFU | net increase in fluorescence over baseline (Fluo-4 calcium assay, AVG of six replicates), aspartame 0.85 mM [3]: 72 RFU
Binder: Asp-Phe-OMe [Aspartame (aspartyl-phenylalanine-1-methyl ester, a dipeptide)]
